For series [1], the target named is T1, GUN1-FL (Arabidopsis thaliana, UniProt Q9SIC9 1-918).
T1 sequence: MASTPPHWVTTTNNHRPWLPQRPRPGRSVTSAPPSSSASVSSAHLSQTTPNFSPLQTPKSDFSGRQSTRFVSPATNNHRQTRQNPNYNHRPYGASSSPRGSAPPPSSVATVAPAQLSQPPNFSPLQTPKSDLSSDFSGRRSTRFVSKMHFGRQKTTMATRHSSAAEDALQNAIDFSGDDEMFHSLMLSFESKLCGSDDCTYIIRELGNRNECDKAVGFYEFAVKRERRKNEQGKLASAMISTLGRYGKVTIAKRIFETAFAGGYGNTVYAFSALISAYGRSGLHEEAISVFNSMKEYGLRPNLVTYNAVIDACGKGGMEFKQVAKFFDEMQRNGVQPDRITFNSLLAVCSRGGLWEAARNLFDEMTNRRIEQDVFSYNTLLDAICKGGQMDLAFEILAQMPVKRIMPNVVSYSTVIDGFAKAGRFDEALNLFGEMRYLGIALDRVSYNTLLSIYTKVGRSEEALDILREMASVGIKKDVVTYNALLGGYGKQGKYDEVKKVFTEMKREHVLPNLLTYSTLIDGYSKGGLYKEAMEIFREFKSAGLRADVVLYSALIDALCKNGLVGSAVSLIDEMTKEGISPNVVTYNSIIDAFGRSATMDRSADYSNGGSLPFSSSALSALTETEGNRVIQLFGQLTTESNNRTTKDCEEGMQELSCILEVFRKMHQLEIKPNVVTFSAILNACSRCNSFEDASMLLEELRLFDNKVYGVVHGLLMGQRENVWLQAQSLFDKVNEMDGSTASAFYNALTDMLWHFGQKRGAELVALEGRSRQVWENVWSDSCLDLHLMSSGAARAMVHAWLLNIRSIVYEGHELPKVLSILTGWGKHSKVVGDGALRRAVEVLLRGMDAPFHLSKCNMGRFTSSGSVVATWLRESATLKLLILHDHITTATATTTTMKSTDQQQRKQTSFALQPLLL
The experiment in a line: EMSA. Background: A gel shift assay detects complexes by their altered migration in electrophoresis.

Series [2] has as its target T2, GUN1-PS (Arabidopsis thaliana, UniProt Q9SIC9 232-918).
T2 sequence: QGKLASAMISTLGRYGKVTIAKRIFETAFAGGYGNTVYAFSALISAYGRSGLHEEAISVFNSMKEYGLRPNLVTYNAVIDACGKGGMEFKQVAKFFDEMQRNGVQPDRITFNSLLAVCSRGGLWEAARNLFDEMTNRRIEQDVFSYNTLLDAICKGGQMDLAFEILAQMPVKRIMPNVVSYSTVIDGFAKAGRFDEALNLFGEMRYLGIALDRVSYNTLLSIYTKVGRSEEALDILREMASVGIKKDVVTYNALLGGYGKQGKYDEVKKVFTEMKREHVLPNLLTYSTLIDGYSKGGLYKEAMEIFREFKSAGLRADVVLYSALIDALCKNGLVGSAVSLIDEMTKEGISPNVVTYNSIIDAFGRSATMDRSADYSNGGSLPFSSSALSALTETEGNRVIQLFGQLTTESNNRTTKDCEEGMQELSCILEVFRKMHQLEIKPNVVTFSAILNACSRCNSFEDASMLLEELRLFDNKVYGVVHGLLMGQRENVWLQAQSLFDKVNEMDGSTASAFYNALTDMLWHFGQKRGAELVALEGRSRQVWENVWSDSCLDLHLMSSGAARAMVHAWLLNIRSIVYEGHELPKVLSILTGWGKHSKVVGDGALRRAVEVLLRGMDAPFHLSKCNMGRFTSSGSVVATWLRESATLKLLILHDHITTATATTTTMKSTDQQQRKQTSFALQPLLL
In words: EMSA.

As for AAGAGACAACCUGGCGAACUGAAAC (ssRNA) [23S_104856], the binding result in series [1] and in series [2] was “binds” throughout.
On to AGAAAAAAAUCUGUUGAUAAAUGAA (ssRNA) [ndhG_118454], for which the binding result in series [1] is “binds”.

The record behind these values is paper doi:10.1101/2024.02.08.579428.
